For one substance, stoichiometry N results are on record in publication PMC2275616.

Several values for one entry are separate records, joined by “and”; a condition that tells them apart may be missing. Equal values may be shown once.

This test deals with phosphocellulose-purified tubulin (bovine (endogenous in bovine brain)) (UniProt Q6B856). Kind of test: native gel or EMSA. For orientation: A gel shift assay detects complexes by their altered migration in electrophoresis.

One may read the stoichiometry N as the number of molecules, sites or subunits per partner or assembly.

In the case of “phosphocellulose-purified tubulin (from UniProt Q6B856 1-445) (complex)”, the stoichiometry N was 4 and 6 and 8.
